According to the Human Domainome abundance scans (Beltran et al. 2025):
± gives the uncertainty stated by the source.

B1: CD2-associated protein, residues 271 to 331; numbered along this chain, Q9Y5K6 (parent)
chain: KEYCRTLFAYEGTNEDELTFKEGEIIHLISKETGEAGWWRGELNGKEGVFPDNFAVQINEL
B2: Protein piccolo, residues 1058 to 1114; numbered along this chain, Q9Y6V0 (parent)
chain: TCPLCKTELNIGSKDPPNFNTCTECKNQVCNLCGFNPTPHLTEIQEWLCLNCQTQRA

Variants of: B1
Assay: abundance fitness (aPCA) (normalised: wild type 0, dead -1); higher = more abundant; growth selection in yeast, the domain comes from the species named
Conditions: Homo sapiens

Row | Variant | abundance fitness
1 | L61V | 0.02 ± 0.13
2 | T33M | -0.468 ± 0.096
3 | I26H | -0.537 ± 0.17
4 | I26S | -0.76 ± 0.078
5 | A55T | -0.149 ± 0.093
6 | T6R | -0.682 ± 0.1
7 | K31G | -0.522 ± 0.11
8 | K31L | -0.476 ± 0.064
9 | L43P | -0.701 ± 0.2
10 | E11A | -0.234 ± 0.088
11 | K21S | -0.045 ± 0.063
12 | K21G | -0.027 ± 0.058
13 | G41T | -0.636 ± 0.1
14 | T19Q | -0.536 ± 0.21
15 | T19F | -0.592 ± 0.073
16 | T19K | -0.436 ± 0.17
17 | G23E | -0.564 ± 0.17
18 | G23Q | -0.726 ± 0.15

Row | Variant | abundance fitness
19 | W39G | -0.615 ± 0.082
20 | N44P | -1.14 ± 0.2
21 | N44L | -0.287 ± 0.048
22 | I58T | -0.136 ± 0.074
23 | F20Y | -0.713 ± 0.14
24 | I29M | -0.185 ± 0.067
25 | E42H | -0.419 ± 0.13
26 | G37K | -0.403 ± 0.097
27 | G37T | -0.416 ± 0.32
28 | P51N | -0.582 ± 0.16
29 | P51A | -0.447 ± 0.087
30 | V49R | 0.029 ± 0.036
31 | D16S | -0.003 ± 0.048
32 | D16L | -0.091 ± 0.04
33 | D16E | -0.018 ± 0.054
34 | F54I | -0.191 ± 0.11
35 | Y10Q | -0.439 ± 0.13

Variants of: B2
Assay: as above
Conditions: Homo sapiens

Row | Variant | abundance fitness
36 | T54K | 0.196 ± 0.12
37 | T54E | 0.231 ± 0.17
38 | H40W | -0.206 ± 0.13
39 | H40K | -0.06 ± 0.14
40 | H40R | 0.093 ± 0.087
41 | P16G | -0.354 ± 0.12
42 | P16L | -0.095 ± 0.091
43 | P16A | -0.37 ± 0.2
44 | P16S | -0.057 ± 0.1
45 | L4F | -0.376 ± 0.15
46 | L4N | 0.036 ± 0.21
47 | L4K | -0.569 ± 0.23
48 | L4C | -0.043 ± 0.12
49 | L4S | 0.006 ± 0.092
50 | K26C | -0.026 ± 0.16
51 | C33S | -0.646 ± 0.097
52 | C33R | -0.729 ± 0.1
53 | F35R | 0.21 ± 0.087
54 | F35M | 0.291 ± 0.12
55 | F35K | 0.255 ± 0.15
56 | F35P | 0.285 ± 0.14
57 | C52Q | -0.841 ± 0.19

Row | Variant | abundance fitness
58 | C52R | -0.701 ± 0.13
59 | I44M | -0.214 ± 0.21
60 | I44Y | -0.274 ± 0.22
61 | I44W | -0.312 ± 0.16
62 | I44R | -0.138 ± 0.14
63 | T21G | -0.053 ± 0.099
64 | P17Y | -0.53 ± 0.17
65 | N20W | -0.188 ± 0.096
66 | N20R | 0.078 ± 0.08
67 | N20T | 0.067 ± 0.12
68 | N20E | -0.012 ± 0.14
69 | G12W | -0.326 ± 0.091
70 | E43T | -0.091 ± 0.18
71 | S13E | -0.257 ± 0.13
72 | S13F | -0.148 ± 0.1
73 | S13P | -0.062 ± 0.11
74 | S13G | -0.525 ± 0.1
75 | L41I | 0.188 ± 0.21
76 | L48W | -0.061 ± 0.13
77 | L48P | -0.318 ± 0.17
78 | L48T | -0.089 ± 0.14
79 | C30D | -0.499 ± 0.18

Row | Variant | abundance fitness
80 | C5F | -1.11 ± 0.091
81 | C5M | -0.927 ± 0.13
82 | C5R | -0.906 ± 0.09
83 | T42G | 0.122 ± 0.1
84 | Q28N | -0.125 ± 0.18
85 | Q28F | -0.185 ± 0.12
86 | Q45K | 0.268 ± 0.28
87 | Q45D | -0.254 ± 0.39
88 | Q45Y | 0.047 ± 0.2
89 | Q45T | -0.202 ± 0.15
90 | T1P | -0.239 ± 0.36
91 | T1E | -0.142 ± 0.46
92 | P37V | 0.14 ± 0.1
93 | P37A | -0.02 ± 0.13
94 | P37Q | 0.097 ± 0.17
95 | C49E | -1.01 ± 0.24
96 | C49D | -0.597 ± 0.2
97 | C22I | -1.04 ± 0.2
98 | C22E | -0.54 ± 0.16
99 | C22W | -1.03 ± 0.21
100 | W47A | -0.102 ± 0.14
101 | W47L | 0.056 ± 0.1

Row | Variant | abundance fitness
102 | W47D | 0.006 ± 0.26
103 | L9A | 0.032 ± 0.086
104 | L9D | -0.138 ± 0.13
105 | L9C | -0.201 ± 0.11
106 | P39N | -0.214 ± 0.21
107 | P39D | -0.117 ± 0.18
108 | P39V | 0.092 ± 0.098
109 | N51H | -0.146 ± 0.25
110 | N51P | -0.284 ± 0.17
111 | G34F | -0.035 ± 0.12
112 | G34P | -0.63 ± 0.17
113 | G34E | -0.292 ± 0.17
114 | C25G | -0.682 ± 0.083
115 | C25I | -0.669 ± 0.14
116 | F19A | -0.114 ± 0.15
117 | F19E | -0.153 ± 0.2
118 | I11S | -0.026 ± 0.092
119 | I11A | -0.153 ± 0.1
120 | I11N | 0.037 ± 0.18
121 | N27A | 0.151 ± 0.11
122 | N27D | -0.094 ± 0.12
123 | T23F | 0.288 ± 0.15

Row | Variant | abundance fitness
124 | T23N | -0.342 ± 0.23
125 | T23Y | 0.024 ± 0.22
126 | T23S | 0.003 ± 0.1
127 | T23C | 0.041 ± 0.12
128 | N31F | 0.117 ± 0.13
129 | N31L | 0.072 ± 0.083
130 | V29S | -0.265 ± 0.068
131 | V29Y | -0.082 ± 0.077
132 | E24C | -0.706 ± 0.088
133 | D15H | -0.239 ± 0.46
134 | L32W | 0.015 ± 0.094
135 | L32C | -0.017 ± 0.13
136 | P3D | 0.095 ± 0.18
137 | P3V | -0.294 ± 0.11
138 | K6R | -0.283 ± 0.073
139 | K6S | 0.059 ± 0.076
140 | K6Q | -0.02 ± 0.11
141 | K6G | -0.507 ± 0.074
142 | K6W | -0.795 ± 0.088
143 | L50Q | 0.15 ± 0.25
144 | L50N | 0.019 ± 0.14
145 | L50C | -0.04 ± 0.13

Row | Variant | abundance fitness
146 | C2E | -0.557 ± 0.23
147 | C2V | -1.11 ± 0.16
148 | C2G | -0.877 ± 0.13
149 | K14I | -0.653 ± 0.21
150 | N18I | -0.5 ± 0.23
151 | N18H | -0.1 ± 0.17
152 | E8D | -0.14 ± 0.12
153 | E8Q | -0.178 ± 0.099
154 | E8P | -0.09 ± 0.093
155 | E8M | -0.011 ± 0.088
156 | N10S | -0.08 ± 0.086
157 | N10M | 0.042 ± 0.099
158 | N10R | -0.274 ± 0.08
159 | N10L | -0.204 ± 0.08
160 | E46W | -0.401 ± 0.18
161 | E46V | -0.033 ± 0.12
162 | E46L | -0.124 ± 0.1
163 | E46Y | -0.349 ± 0.25
164 | Q53S | 0.028 ± 0.12
165 | Q53T | -0.067 ± 0.22
166 | Q53F | -0.275 ± 0.26
167 | Q53G | -0.016 ± 0.1
